The results in this text go back to paper PMC6558041.

For experiment [1], the target named is hemolysin B (HlyB), ABC transporter of the HlyA type I secretion system (E. coli) (UniProt P08716).
Experiment [2] deals with HlyB∆CLD, truncated HlyB lacking the N-terminal C39 peptidase-like domain (E. coli).
Experiment [3] concerns the target hemolysin B (HlyB), ABC transporter of the HlyA type I secretion system (E. coli) (UniProt P08716). The source holds these as a separate data set.

Sequence of UniProt P08716 (P08716 whole entry, the tested form may be a part): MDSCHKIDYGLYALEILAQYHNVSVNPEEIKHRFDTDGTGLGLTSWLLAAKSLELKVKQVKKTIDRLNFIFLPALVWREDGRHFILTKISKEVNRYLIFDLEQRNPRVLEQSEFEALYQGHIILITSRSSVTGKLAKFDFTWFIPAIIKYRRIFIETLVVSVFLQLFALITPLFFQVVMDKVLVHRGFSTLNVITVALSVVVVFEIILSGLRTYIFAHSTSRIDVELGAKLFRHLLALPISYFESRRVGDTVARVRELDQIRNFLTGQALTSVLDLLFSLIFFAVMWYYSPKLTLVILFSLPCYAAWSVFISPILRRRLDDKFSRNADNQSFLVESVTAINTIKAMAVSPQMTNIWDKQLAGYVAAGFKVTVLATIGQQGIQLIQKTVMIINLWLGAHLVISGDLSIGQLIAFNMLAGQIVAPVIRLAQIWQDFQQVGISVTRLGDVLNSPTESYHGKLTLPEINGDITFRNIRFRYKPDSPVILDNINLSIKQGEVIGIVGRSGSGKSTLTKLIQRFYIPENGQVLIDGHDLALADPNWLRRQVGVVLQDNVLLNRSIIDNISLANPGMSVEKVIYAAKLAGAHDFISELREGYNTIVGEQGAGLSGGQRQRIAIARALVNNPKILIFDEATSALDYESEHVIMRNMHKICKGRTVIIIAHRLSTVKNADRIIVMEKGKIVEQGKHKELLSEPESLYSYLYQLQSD

Consider “proHlyA, full-length hemolytically inactive (non-acylated) precursor form of hemolysin A (from UniProt P08715 1-1024) (natural protein)”, for which, in experiment [1], the inhibition of the basal ATPase activity of HlyB reconstituted with LPC/DOPC mixtures or LPC alone in saposin-A nanoparticles, with 10 µM unfolded proHlyA turned out to be 40%. In experiment [2], the stimulation of the basal ATPase activity of HlyB∆CLD in LPC-saposin-A nanoparticles by folded proHlyA, 0-10 µM (Michaelis-Menten fit with substrate inhibition) was 2 fold and the stimulation of the basal ATPase activity of HlyB∆CLD in LPC-saposin-A nanoparticles by unfolded proHlyA, 0-10 µM, with strong substrate inhibition at higher concentrations was 4 fold. In experiment [3], this substance showed an inhibition of the basal ATPase activity of HlyB in LPC-saposin-A nanoparticles by unfolded proHlyA, 0-10 µM, 4 mM ATP, 25 °C of 30% and a stimulation of ATP hydrolysis of HlyB in LPC-saposin-A nanoparticles by folded proHlyA (Ca2+), 0-10 µM, 4 mM ATP, 25 °C of 60%.
